The values below come from publication PMC2114910 (The Journal of Cell Biology, 1987).

For test [1], the target named is T1, F-actin from chicken breast muscle (chicken (endogenous in breast muscle), UniProt P68139 1-377). Description: cell-based or functional assay.
Test [2] addresses T1, F-actin from chicken breast muscle. Description: co-sedimentation.

B1: 110-kD protein-calmodulin complex of the intestinal microvillus (complex)
chain 1: MEATTSLLDAAAVGDLVMLDPLSEESLLRTLQERFSRGEIYTYIGEVVISVNPYKPLPIYTPEKVEEYHNCNFFAVKPHIYAIADDAYRSLRDRDRDQCILITGESGAGKTEASKLVMSYVAAVSSKGEEVDKVKEQLLQSNPVLEAFGNAKTIRNDNSSRFGKYMDVEFDFKGDPLGGVISNYLLEKSRIVRHVKGERNFHIFYQLLAGGSAQLLQQLKLRPDCSHYGYLNHEKSVLPGMDDAANFRAMQDAMAIIGFAPAEVTALLEVTAVVLKLGNVKLSSCFQASGMEASSITEPRELQEISQLIGLDPSTLEQALCSRTVKVRDESVLTALSVSQGYYGRDALAKNIYSRLFDWLVNRINTSIQVKPGKQRKVMGVLDIYGFEIFQDNGFEQFIINYCNEKLQQIFILMTLKEEQEEYVREGIQWTPVEFFDNSIICDLIENSKVGILAMLDEECLRPGTVNEDTFITKLNQIFASHKRYESKETLNAKHVTDVSLPLRCFRIHHYAGKVTYNVTGFIEKNNDLLFRDLSQAMWAARHTLLRSLFPEGDPQRPSLKLPPTTGSQFKASVATLMKNLYSKNPNYIRCIKPNDTKTAMLFTPDLVLAQVRYLGLMENVRVRRAGYAFRQLYQPFLERYKMLSRKTWPRWTGGDREGAEVLLAELKFPPEELAYGHTKIFIRSPRTLFDLEKRRQQRVAELATLIQKMFRGWCCRKRYQLMRKSQILISAWFRGHMQRNRYKQMKRSVLLLQAYARGWKTRRMYRRYFRSDACTRLSNFIYRRMVQKYLMGLQKNLPPMAVLDRTWPPAPYKFLSDANQELKSIFYRWKCKKYREQLTPQQRAMLQAKLCASELFKDKKALYAQSLQQPFRGEYLGLTQNRKYQKLQAVAKDKLVMAEAVQKVNRANGKTVPRLLLLTTEHLVLADPKAAQPKMVLSLCDIQGASVSRFSDGLLALHLKETSTAGGKGDLLLVSPHLIELVTRLHQTLMDATAQALPLSIADQFSTRFPKGDVAVTVVESAKGGGDVPVCKKRGSHKMEILVH
chain 2: […]
On to B1, for which the “actin activation of the MgATPase activity of 110K-CM, F-actin 0.1 to 60 uM, 35C” value in test [1] lay in the range of 2.5 to 3.5 fold. The “mass ratio of 110K-CM to actin at apparent saturation” value in test [2] was ~20 110K-CM:actin by mass.
